Assay results taken from article PMC12413468.
pKd: −log10 of the molar value.

Target: Fluorescent probe peptide NH3+-NLVGRF-[DAP-FAM]-VSPVPE-COO- (human)
Assay: fluorescence polarisation

His6-tagged OSR1 CCT domain (human OSR1 433–527), sequence (O95747 433-527): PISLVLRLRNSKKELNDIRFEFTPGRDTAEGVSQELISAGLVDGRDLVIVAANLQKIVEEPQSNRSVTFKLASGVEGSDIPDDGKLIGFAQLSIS

His6-tagged OSR1 CCT domain (human OSR1 433–527) (from UniProt O95747 433-527) (domain or fragment)
pKd: 5.82

His6-tagged SPAK CCT domain (mouse SPAK 459–556) (from UniProt Q9Z1W9 459-556) (domain or fragment)
pKd: 6.17

Purified SPAK CCT domain D477Q (domain or fragment)
fold decrease in peptide probe binding affinity against wild type: 50 fold
